{
  "source": "patent US20160177324A1",
  "about": "“NOVEL PROTEIN AND GENE RELATED TO FLAVONOID O-METHYLTRANSFERASE (FOMT) AND THEIR USES THEREFORE” (INSTITUTE OF BOTANY, THE CHINESE ACADEMY OF SCIENCES, priority 2013, published 2016)",
  "molecules": {"B1": {"name": "PsFOMT: flavonoid O-methyltransferase from tree peony Paeonia suffruticosa cv. 'Gunpohden', SEQ ID NO: 3; recombinant MBP fusion protein (protein, listed as Paeonia suffruticosa)", "chain": "MAESDRKGILKSEALLKYILETSVYPREHEQLKQLRQATVDKYKYWSVMNVPADEGQFLSMLLKIMNAKKTIEVGVFTGYSLLTAALALPTDAKITAIDPDGEAYETGLPFIKKAGVEHKINYIQADAMSVLDDLVTNGKEEGSFDFAFVDADKENYAKYHEPLMKLVKIGGIIGYDNTLWFGSVALSDGDEMKEFQEKGRRIFREFNTFLAADPRIELAHISIGDGLALCRRLY", "modifications": "MBP fusion", "notes": "recombinant MBP fusion protein"}},
  "key": {"[1]": {"system": "Nicotiana tabacum cv.Nc89", "experiment": "Flavonoid O-methyltransferase activity in transgenic tobacco", "assay_type": "in vivo", "from_the_text": "The full length genes were introduced with a BamHl site and an XhoI site on 5′- and 3′-end by PCR with primers SEQ No. 5 & 6. The double digested fragment of interest and eukaryotic expression vector pBI121 with BamHl site and an XhoI were ligated. Then the appropriate constructs were introduced into Agrobacterium strain EHA105 by electroporation.\nLeaf of Nicotiana tabacum cv.Nc89 plant (Donated by Professor Silan Dai, Beijing Forestry University) was disinfected by 75% ethanol for 30 s, followed by 2% sodium hypochlorite for 3 minutes, and then washed with sterile water for three times. The leaf was cut into squares (25 mm^2) A single colony of Agrobacterium strain EHA105 with pBI121-FOMT construct was used to inoculate with 2 mL of YEB medium (per liter: 5 g of beef extract, 1 g of yeast extract, 5 g of sucrose, and 0.5 g of MgSO4.7H2O), supplemented with 50 mg mL^−1 kanamycin and 25 mg mL^−1 Rifampicin. The culture was incubated at 28° C. until OD600 0.6-0.8, and the bacteria were pelleted by centrifugation at 5000 rpm for 5 minutes. The cells were washed by MS liquid medium and resuspended pellets with appropriate volume of MS liquid. The tobacco leaf squares were dipped into the bacteria solution for 8 minutes and cultivated on MS media containing 2.0 mg L^−1 6-benzylaminopurine (6-BA), 0.2 mg L^−1 1-naphthylacetic acid (NAA), and 500 mg L^−1 ceflomine. The explants were transferred to fresh selected medium after two weeks. When the regenerating plantlets grow to 2 cm, move them to MS media containing 0.2 mg L^−1 NAA to induce root. After four weeks, the transgenic tobacco plantlets were transferred to pots and kept in the greenhouse till flowering. The positive transgenic lines were selected by PCR, and transgenic plantlets with empty plasmid were used as control. The anthocyanins in transgenic petals were detected with an HPLC system.\nAppropriate amount of sample (petal, fruits) was powdered with mortars and pestles and extracted for the first time with 2 mL 2% (v/v) formic acid methanol solution shaken in a QL-861 vortex (Kylinbell Lab Instruments, Jiangsu, China), sonicated in KQ-500DE ultrasonic cleaner (Ultrasonic instruments, Jiangsu Kunshan, China) at 20° C. for 20 min, centrifuged in SIGMA 3K30 (SIGMA centrifugers, Germany) (12000 rpm, 10 min), and the supernatant was collected. Additional 2 mL and 1 mL extraction solution was supplemented to the residue, and repeated aforesaid operation for the second and third times. All extract was pooled and filtrated through 0.22 μm reinforced nylon membrane filters (Shanghai ANPEL, Shanghai, China) before the HPLC-DAD and HPLC-ESI-MS^n analyses. Three replicates were performed for each sample. […]\nHPLC-ESI-MS^n analysis was carried with an Agilent-1100 HPLC system equipped with a UV detector coupled to a LC-MSD Trap VL ion-trap mass spectrometer via an ESI source (Agilent Technologies, Palo Alto, Calif.). […] The MS conditions were listed as follow: negative-ion (NI) mode; capillary voltage of 3.5 kV; a nebulization pressure of 241.3 kPa; and a gas (N2) temperature of 350° C. with flow rate of 6.0 L min^−1 Capillary offset voltage was 77.2 V. MS spectra were recorded over the range from m/z 50-1000."}, "[2]": {"experiment": "Comparison of activities among recombinant polypeptides with site mutagenesis", "assay_type": "biochemical", "settings": "Cy3G5G as substrate", "description": "(§1) The reaction system was according to Hugueney et al. with some modification (Hugueney, P., et al., A novel cation-dependent O-methyltransferase involved in anthocyanin methylation in grapevine. Plant Physiology, 2009. 150(4): p. 2057-2070.). Purified recombinant FOMT (2 μg) was assayed in a final volume of 200 μL containing 200 μM SAM, 1 mM MgCl2, 14 mM β-mercaptoethanol, 100 mM Tris, pH 7.5, and 20 μM flavonoid substrates. Incubation was performed at 35° C. and stopped with 200 μL methanol containing 2% formic acid. For enzyme kinetic studies, purified FOMT was incubated based on the above condition with the exception that a range of substrate concentrations from 5 to 200 μM were used for Km determination. Reaction product was analyzed by a Dionex HPLC system (Sunnyvale, Calif.), equipped with a P680 HPLC pump, an UltiMate 3000 autosampler, a TCC-100 thermostated column compartment and a Dionex PDA100 photodiode array detector. The analytical column was C18 column of ODS 80Ts QA (150 mm×4.6 mm, 5 μm i.d., Tosoh, Tokyo) protected with a C18 guard cartridge (Shanghai ANPEL Scientific Instrument, Shanghai). The following solvent and gradient were used: A, 10% aqueous formic acid; B, methanol; constant gradient from 10 to 36% B within 15 min and back to 10% B in 3 min; the flow rate was 0.8 mL min^−1; Column temperature was maintained at 35° C.; 20 μL of analyte was injected. Chromatograms were obtained at 525 nm for anthocyanins and 350 nm for other flavonoids, and photodiode array spectra were recorded from 200 to 800 nm. Km and Vmax values were calculated from Lineweaver-Burk plots.\nTo validate the key amino acid responsible for the activity, site-directed mutagenesis was carried out using the PCR method and Fast Mutagenesis System (TransGen), and primer sequences used are given in Table 1. Four constructs were built following the template sequence of PtFOMT, named as PtFOMT-G13E, PtFOMT-T85A, PtFOMT-R87L, and PtFOMT-T205R. The corresponding recombinant proteins were purified and the catalytic activities were examined. […] The other mutants have no significant improved activity compared with PtFOMT. The leucine at 87-position is a vital residue for the methyltransferase activity."}, "[3]": {"experiment": "Biochemical characterization of PsFOMT reaction conditions (pH, temperature, divalent cations, Mg2+ concentration)", "description": "For quantitative analyses, reaction conditions were optimized. The pH dependence of FOMTs activity was assessed in the pH range of 4.5 to 8.5 using MES (4.5-6.5) and Tris-HCl (7.5-8.5) buffer. The effect of divalent cations on enzyme activity was estimated by adding to the reaction mixture containing 10 mM MgCl2, CaCl2, ZnCl2, MnCl2, CoCl2 or EDTA. The proper concentration of metal ion was assessed by testing different concentrations of MgCl2 (0.1, 0.2, 0.5, 1.0, 5.0 and 10 mM). Incubation temperature was set at 25, 30, 35 and 40° C. to detect the effect on enzyme activity.\nas §1"}},
  "data": [
    {"molecule": "B1", "values": [
      {"measurement": "flower color compared with control lines", "setting": "[1]; transgenic tobacco flowers", "result": "tend to purplish"},
      {"measurement": "methyltransferase function in tobacco petal (new anthocyanin Pn3R detected)", "setting": "[1]; transgenic tobacco petals vs empty vector", "result": "performed as a methyltransferase"},
      {"measurement": "content of peonidin 3-O-rutinoside (Pn3R) in total anthocyanin (TA)", "setting": "[1]; transgenic tobacco petals, 35S:: lines", "result": "much higher"},
      {"measurement": "Activity (%), portion of recombinant protein activity compared with PsFOMT", "setting": "[2]; Incubation 5 min", "result": 100, "unit": "%"},
      {"measurement": "Activity (%), portion of recombinant protein activity compared with PsFOMT", "setting": "[2]; Incubation 30 min", "result": 100, "unit": "%"},
      {"measurement": "activity in the presence of EDTA", "setting": "[3]; 10 mM EDTA", "result": "could not been detected"},
      {"measurement": "influence of different divalent cations on activity", "setting": "[3]; 10 mM MgCl2, CaCl2, ZnCl2, MnCl2, CoCl2", "result": "most active in the presence of Mg^2+"},
      {"measurement": "effect of increasing incubation temperature on activity", "setting": "[3]; 25-40° C.", "result": "accelerated"},
      {"measurement": "optimal concentration of Mg^2+", "setting": "[3]; MgCl2 0.1-10 mM tested", "result": 1.0, "unit": "mM"},
      {"measurement": "pH optimum", "setting": "[3]; on the substrate of Qu3R", "result": 7.5},
      {"measurement": "pH dependence range of activity in vitro", "setting": "[3]; substrate Qu3R, pH 4.5 to 8.5 tested", "result": "6.5-8.5"}
    ]}
  ]
}
